Key:
[1] = SEC; milk peptide fraction <3 kDa (MP) run beside pepsin autoproteolysis peptides (PP); physiologically relevant conditions; area under the curve at 215 nm; details in Supplementary Information
[2] = target: milk-derived short digestion-resistant peptides with the mass <3 kDa; test: as above

For “milk-derived short digestion-resistant peptides with the mass <3 kDa”, the “percent of the peptides aggregated” value [1] was 43.5% of the peptides aggregated into larger complexes and the stoichiometry N [2] was > 4.

From PMC7692894
